# Results reported in patent US20240401082A1 (Sanofi, published 2024).
# Positions count from the first letter of the chain named. Numbers in names are those of the source.
# T1: human complement C1s enzyme (activated C1s) (human, UniProt P09871 16-437; P09871 438-688)
# T1 construct: Bought from Complement Technology; Disulfide-linked heterodimer; Biotinylated with EZ-Link Sulfo-NHS-LC-LC-Biotin when captured in BLI; also called active C1s; aC1s
# T1 sequence 1: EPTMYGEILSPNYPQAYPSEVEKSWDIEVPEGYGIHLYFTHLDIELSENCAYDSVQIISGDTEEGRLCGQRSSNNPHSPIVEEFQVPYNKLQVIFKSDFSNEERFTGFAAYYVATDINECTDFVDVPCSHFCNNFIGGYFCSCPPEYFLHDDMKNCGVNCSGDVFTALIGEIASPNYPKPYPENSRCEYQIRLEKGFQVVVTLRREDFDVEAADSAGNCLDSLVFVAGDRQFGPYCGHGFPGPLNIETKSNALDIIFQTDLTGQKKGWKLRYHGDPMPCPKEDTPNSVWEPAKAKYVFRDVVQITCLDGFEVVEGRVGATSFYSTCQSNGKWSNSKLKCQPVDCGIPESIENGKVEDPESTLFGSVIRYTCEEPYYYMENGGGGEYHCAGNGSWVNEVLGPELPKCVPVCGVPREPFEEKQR
# T1 sequence 2: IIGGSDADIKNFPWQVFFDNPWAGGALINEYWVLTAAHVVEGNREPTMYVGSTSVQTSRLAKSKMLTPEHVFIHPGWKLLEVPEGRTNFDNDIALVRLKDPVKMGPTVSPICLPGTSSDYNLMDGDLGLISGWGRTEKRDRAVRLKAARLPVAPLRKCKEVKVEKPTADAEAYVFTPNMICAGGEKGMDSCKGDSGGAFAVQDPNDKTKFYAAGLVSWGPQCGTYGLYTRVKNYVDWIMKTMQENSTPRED
# B1: construct #17: αC1s F2A Fab-(G4S)3-αBb scFab (bispecific antibody)
# light: DIVLTQSPDSLAVSLGERATISCKASQSVDYDGDSYMNWYQQKPGQPPKILIYDASNLESGIPARFSGSGSGTDFTLTISSLEPEDFAIYYCQQSNEDPWTFGGGTKVEIKRTVAAPSVFIFPPSDEQLKSGTASVVCLLNNFYPREAKVQWKVDNALQSGNSQESVTEQDSKDSTYSLSSTLTLSKADYEKHKVYACEVTHQGLSSPVTKSFNRGEC
# chain: QVQLVQSGAEVKKPGASVKLSCTASGFNIKDDYIHWVKQAPGQGLEWIGRIDPADGHTKYAPKFQVKVTITADTSTSTAYLELSSLRSEDTAVYYCARYGYGREVFDYWGQGTTVTVSSASTKGPSVFPLAPCSRSTSESTAALGCLVKDYFPEPVTVSWNSGALTSGVHTFPAVLQSSGLYSLSSVVTVPSSSLGTKTYTCNVDHKPSNTKVDKRVGGGGSGGGGSGGGGSDIQMTQSPSTLSASVGDRVTITCKASQDVGTAVAWYQQKPGKAPKLLIYWASTRHTGVPDRFSGSGSGTDFTLTISSLQAEDFAVYFCHQHSSNPLTFGQGTKLEIKRTVAAPSVFIFPPSDEQLKSGTASVVCLLNNFYPREAKVQWKVDNALQSGNSQESVTEQDSKDSTYSLSSTLTLSKADYEKHKVYACEVTHQGLSSPVTKSFNRGECGGGGSGGGGSGGGGSGGGGSGGGGSGGGGSGGGGSEVQLVESGGGLVKPGGSLRLSCAASGFTFSNYAMSWVRQAPGKRLEWVATISNRGSYTYYPDSVKGRFTISRDNAKNSLYLQMNSLRAEDTALYYCARERPMDYWGQGTLVTVSSASTKGPSVFPLAPCSRSTSESTAALGCLVKDYFPEPVTVSWNSGALTSGVHTFPAVLQSSGLYSLSSVVTVPSSSLGTKTYTCNVDHKPSNTKVDKRV
# B2: construct #18: αC1s GT2A Fab-(G4S)3-αBb scFab (bispecific antibody)
# light: B1 light
# chain: B1 chain
# B3: construct #15: αC1s scFab-(G4S)3-αBb scFv (bispecific antibody)
# chain: DIVLTQSPDSLAVSLGERATISCKASQSVDYDGDSYMNWYQQKPGQPPKILIYDASNLESGIPARFSGSGSGTDFTLTISSLEPEDFAIYYCQQSNEDPWTFGGGTKVEIKRTVAAPSVFIFPPSDEQLKSGTASVVCLLNNFYPREAKVQWKVDNALQSGNSQESVTEQDSKDSTYSLSSTLTLSKADYEKHKVYACEVTHQGLSSPVTKSFNRGECGGGGSGGGGSGGGGSGGGGSGGGGSGGGGSGGGGSQVQLVQSGAEVKKPGASVKLSCTASGFNIKDDYIHWVKQAPGQGLEWIGRIDPADGHTKYAPKFQVKVTITADTSTSTAYLELSSLRSEDTAVYYCARYGYGREVFDYWGQGTTVTVSSASTKGPSVFPLAPCSRSTSESTAALGCLVKDYFPEPVTVSWNSGALTSGVHTFPAVLQSSGLYSLSSVVTVPSSSLGTKTYTCNVDHKPSNTKVDKRVGGGGSGGGGSGGGGSEVQLVESGGGLVKPGGSLRLSCAASGFTFSNYAMSWVRQAPGKRLEWVATISNRGSYTYYPDSVKGRFTISRDNAKNSLYLQMNSLRAEDTALYYCARERPMDYWGQGTLVTVSSGGGGSGGGGSGGGGSDIQMTQSPSTLSASVGDRVTITCKASQDVGTAVAWYQQKPGKAPKLLIYWASTRHTGVPDRFSGSGSGTDFTLTISSLQAEDFAVYFCHQHSSNPLTFGQGTKLEIK
# notes: Residues 1-20 were left out as the signal peptide, which is marked by boldface only
# B4: construct #16: αC1s scFab-(G4S)3-αBb scFv-CM (bispecific antibody)
# chain: B3 chain with Q42E, Q292K, Q524E, Q653K
# notes: as for B3
# B5: construct #7: αC1s scFab-(G4S)3-αBb scFab (bispecific antibody)
# chain: DIVLTQSPDSLAVSLGERATISCKASQSVDYDGDSYMNWYQQKPGQPPKILIYDASNLESGIPARFSGSGSGTDFTLTISSLEPEDFAIYYCQQSNEDPWTFGGGTKVEIKRTVAAPSVFIFPPSDEQLKSGTASVVCLLNNFYPREAKVQWKVDNALQSGNSQESVTEQDSKDSTYSLSSTLTLSKADYEKHKVYACEVTHQGLSSPVTKSFNRGECGGGGSGGGGSGGGGSGGGGSGGGGSGGGGSGGGGSQVQLVQSGAEVKKPGASVKLSCTASGFNIKDDYIHWVKQAPGQGLEWIGRIDPADGHTKYAPKFQVKVTITADTSTSTAYLELSSLRSEDTAVYYCARYGYGREVFDYWGQGTTVTVSSASTKGPSVFPLAPCSRSTSESTAALGCLVKDYFPEPVTVSWNSGALTSGVHTFPAVLQSSGLYSLSSVVTVPSSSLGTKTYTCNVDHKPSNTKVDKRVGGGGSGGGGSGGGGSDIQMTQSPSTLSASVGDRVTITCKASQDVGTAVAWYQQKPGKAPKLLIYWASTRHTGVPDRFSGSGSGTDFTLTISSLQAEDFAVYFCHQHSSNPLTFGQGTKLEIKRTVAAPSVFIFPPSDEQLKSGTASVVCLLNNFYPREAKVQWKVDNALQSGNSQESVTEQDSKDSTYSLSSTLTLSKADYEKHKVYACEVTHQGLSSPVTKSFNRGECGGGGSGGGGSGGGGSGGGGSGGGGSGGGGSGGGGSEVQLVESGGGLVKPGGSLRLSCAASGFTFSNYAMSWVRQAPGKRLEWVATISNRGSYTYYPDSVKGRFTISRDNAKNSLYLQMNSLRAEDTALYYCARERPMDYWGQGTLVTVSSASTKGPSVFPLAPCSRSTSESTAALGCLVKDYFPEPVTVSWNSGALTSGVHTFPAVLQSSGLYSLSSVVTVPSSSLGTKTYTCNVDHKPSNTKVDKRV
# notes: Signal peptide marked by boldface only
# B6: construct #11: αC1s scFab-(G4S)3-αBb scFab-CM (bispecific antibody)
# chain: B5 chain with Q42E, Q292K, Q523K, S599A, N622K, Q773E, T919E
# notes: as for B3
# Molecular target: T1, human complement C1s enzyme (activated …)
# Test: BLI dual target engagement: one target captured, then protein, then the other target
# Text: (§1) Bio-layer interferometry (BLI) was used to assess the recombinant proteins' target engagement to and binding affinity for complement C1s enzyme (active C1s or “C1s” herein) and factor Bb (Bb) (Complement Technology, Tyler, TX, USA). C1s and Bb were biotinylated with EZ-Link™ Sulfo-NHS-LC-LC-Biotin (Thermo Fisher, Waltham, MA, USA) according to manufacturer instructions. Biotinylated C1s or Bb was loaded on Octet® Streptavidin (SA) Biosensors (Sartorius, Göttingen, Germany), followed by a concentration range of purified proteins. To assess dual target engagement, biotinylated active C1s or Bb was loaded onto sensors, followed by purified proteins (“first association phase”), followed by the non-captured complement target (Bb or active C1s, non-biotinylated; “second association phase”). The assays were performed at 30° C. using PBS with 0.1% Tween 20 as a diluent (FIG. 3).
row,binding result,Binder
1,binds,B1
2,binds,B2

# Molecular target: T2, human complement factor Bb (human, UniProt P00751 260-764)
# T2 construct: Bought from Complement Technology; Biotinylated with EZ-Link Sulfo-NHS-LC-LC-Biotin when captured in BLI; also called FBb
# T2 sequence (P00751 260-764): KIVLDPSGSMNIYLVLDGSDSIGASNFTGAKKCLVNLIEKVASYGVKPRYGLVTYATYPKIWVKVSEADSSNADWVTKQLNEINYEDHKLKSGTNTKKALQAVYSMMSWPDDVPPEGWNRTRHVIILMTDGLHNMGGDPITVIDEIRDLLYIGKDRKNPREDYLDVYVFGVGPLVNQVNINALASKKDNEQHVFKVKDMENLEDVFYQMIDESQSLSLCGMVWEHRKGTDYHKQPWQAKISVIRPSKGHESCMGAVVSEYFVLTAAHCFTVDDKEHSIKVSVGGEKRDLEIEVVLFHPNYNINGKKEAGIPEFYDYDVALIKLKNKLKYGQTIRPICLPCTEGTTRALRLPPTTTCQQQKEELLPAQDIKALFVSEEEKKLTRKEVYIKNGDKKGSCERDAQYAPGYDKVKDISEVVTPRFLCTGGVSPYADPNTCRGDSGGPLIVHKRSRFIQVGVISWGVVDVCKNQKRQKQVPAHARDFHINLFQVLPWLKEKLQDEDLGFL
# Test: as above
# Text: as §1
row,binding result,Binder
1,binds,B1
2,binds,B2

# Molecular target: T1, human complement C1s enzyme (activated …)
# Test: BLI (Octet), biotinylated target on streptavidin sensor
# Text: as §1
Kd,koff,kon,Binder
1.6 nM,0.00057 s⁻¹,370000 M⁻¹ s⁻¹,B3
1.4 nM,0.00051 s⁻¹,360000 M⁻¹ s⁻¹,B4
1.8 nM,0.00047 s⁻¹,260000 M⁻¹ s⁻¹,B5
2.7 nM,0.00058 s⁻¹,210000 M⁻¹ s⁻¹,B6

# Molecular target: T2, human complement factor Bb
# Test: as above
# Text: as §1
Kd,koff,kon,Binder
3.9 nM,0.00045 s⁻¹,120000 M⁻¹ s⁻¹,B3
2.5 nM,0.00023 s⁻¹,90000 M⁻¹ s⁻¹,B4
9.3 nM,0.00054 s⁻¹,60000 M⁻¹ s⁻¹,B5
8.8 nM,0.00051 s⁻¹,60000 M⁻¹ s⁻¹,B6

# Molecular target: T1, human complement C1s enzyme (activated …)
# Test: cell-based or functional assay
row,IC50 CP (Wieslab),Binder
1,34.7 nM,B3
2,35.4 nM,B4
3,45.9 nM,B5
4,49.7 nM,B6

# Molecular target: T2, human complement factor Bb
# Test: cell-based or functional assay
IC50 AP (Wieslab),"IC50 AP (Wieslab); curve not saturated, estimated",Binder
405 nM,–,B3
586 nM,–,B4
570 nM,–,B5
–,~1000 nM,B6
